Residues, ends and D or L forms follow the SMILES beside them. *: point of attachment. X1 = CC1(C)C(/C=C/C=C/C=C/C=C2/N(CCCCCC(=O)NCCN3C(=O)CC(*)C3=O)c3ccc4ccccc4c3C2(C)C)=[N+](CCCCS(=O)(=O)[O-])c2ccc3ccccc3c21
System: 4T1 tumor
Experiment: Ex vivo NIRF imaging of organs (biodistribution and kinetics of ICG-pHLIP)
Format: in vivo, mouse
Conditions: for Fluorescence intensity, Bone / Fluorescence intensity, Brain / Fluorescence intensity, Heart / Fluorescence intensity, Kidneys / Fluorescence intensity, L. Intest. / Fluorescence intensity, Liver / Fluorescence intensity, Lungs / Fluorescence intensity, Muscle / Fluorescence intensity, Pancreas / Fluorescence intensity, S. Intest. / Fluorescence intensity, Skin / Fluorescence intensity, Spleen / Fluorescence intensity, Stomach / Fluorescence intensity, Tumor: mean ± St. D., 5 animals
Description: BALB/cAcNHsd mice ranging in age from 5 to 6 weeks obtained from Envigo RMS Inc were used in the study. Mouse mammary 4T1 cancer cells were subcutaneously implanted in the right flank (8×10^5 cells/0.1 mL/flank) of adult female mice. Triple negative 4T1 tumor model closely mimics stage IV of human breast cancer. When tumors reached 5-6 mm in diameter, single tail vein injections of 2.5 nmol (or 0.5 mg/kg) of ICG-pHLIP in sterile PBS with 5% DMSO or 5% Ethanol (volume of the injection was 100 μl) were performed. The whole body and ex vivo imaging was performed using a Stryker 1588 AIM clinical imaging system with L10 AIM Light Source, 1588 AIM Camera using a 10 mm or 5 mm scope.
Animals were euthanized at time points: 5 min, 1 hr, 2 hrs, 4 hrs, 6 hrs, 16 hrs, 26 hrs and 48 hrs. […] 100 μl of blood was collected immediately after euthanasia and mixed with 12.5 μl of citrate-dextrose anticoagulant solution (kept at 4° C.), and necropsy was performed. Tumor, muscles, skin, heart, lungs, liver, spleen, kidneys, brain, pancreas, bone, stomach, small and large intestines were collected, imaged immediately after collection, weighed, and fast frozen in liquid nitrogen.
The ex vivo imaging of organs was performed using a Stryker 1588 AIM clinical imaging system with L10 AIM Light Source, 1588 AIM Camera using a 10 mm scope. The lens was spaced 4.3 cm away from the surface of the organs within an enclosed (light protected) area. The NIRF imaging of each organ was performed at three different laser intensities set on a hexadecimal scale as 0B-22 (low), 12-5C (medium), and 20-3A (high). The digital images of organs were processed using program written in Python to determine the average level of intensity recorded in the green channel. Since organs were imaged in the dark on black mats, the background signal was determined by introducing an intensity threshold. All the pixels with intensity from the green channel above the set threshold were counted and the average green intensity per pixel was calculated. Thus, the mean intensity per organ (Table 17a) and averaged over organs from 5 animals (Table 17b) was calculated.

With CC(C)C[C@H](NC(=O)[C@H](Cc1ccc(O)cc1)NC(=O)[C@H](C)NC(=O)[C@H](CCCNC(=N)N)NC(=O)[C@H](Cc1c[nH]c2ccccc12)NC(=O)[C@@H]1CCCN1C(=O)[C@H](CC(N)=O)NC(=O)[C@H](CCC(N)=O)NC(=O)[C@H](CC(=O)O)NC(=O)[C@H](CC(=O)O)NC(=O)[C@H](CSC1CC(=O)N(CCNC(=O)CCCCCN2/C(=C/C=C/C=C/C=C/C3=[N+](CCCCS(=O)(=O)[O-])c4ccc5ccccc5c4C3(C)C)C(C)(C)c3c2ccc2ccccc32)C1=O)NC(=O)[C@H](C)N)C(=O)N[C@@H](CC(=O)O)C(=O)N[C@@H](CC(C)C)C(=O)N[C@@H](CC(C)C)C(=O)N[C@@H](Cc1ccccc1)C(=O)N1CCC[C@H]1C(=O)N[C@H](C(=O)N[C@@H](CC(=O)O)C(=O)N[C@H](C(=O)N[C@@H](CC(C)C)C(=O)N[C@@H](CC(C)C)C(=O)N[C@@H](CC(C)C)C(=O)N[C@@H](CC(=O)O)C(=O)N[C@@H](CC(C)C)C(=O)N[C@@H](CC(C)C)C(=O)N[C@@H](Cc1c[nH]c2ccccc12)C(=O)N[C@@H](C)C(=O)O)[C@@H](C)O)[C@@H](C)O (some centres unmarked) [ICG-pHLIP] (H-AC(X1)DDQNPWRAYLDLLFPTDTLLLDLLWA-OH) the “time the fluorescence stays within the tumor” value (4T1 tumor) was “up to 26 hours”, the “Fluorescence intensity, Bone” value (5 min p.i.) was 79.4 ± 8.1 a.u and the “Fluorescence intensity, Brain” value (5 min p.i.) was 167.0 ± 22.5 a.u. The “Fluorescence intensity, Heart” value (5 min p.i.) was 198.1 ± 15.9 a.u, the “Fluorescence intensity, Kidneys” value (5 min p.i.) was 171.7 ± 18.4 a.u and the “Fluorescence intensity, L. Intest.” value (5 min p.i.) was 37.1 ± 7.9 a.u. For the same compound, the “Fluorescence intensity, Liver” value (5 min p.i.) was 419.8 ± 37.9 a.u, the “Fluorescence intensity, Lungs” value (5 min p.i.) was 216.6 ± 2.7 a.u and the “Fluorescence intensity, Muscle” value (5 min p.i.) was 22.2 ± 20.3 a.u. The “Fluorescence intensity, Pancreas” value (5 min p.i.) was 153.2 ± 34.7 a.u, the “Fluorescence intensity, S. Intest.” value (5 min p.i.) was 42.4 ± 12.2 a.u and the “Fluorescence intensity, Skin” value (5 min p.i.) was 27.9 ± 16.4 a.u. For the same compound, the “Fluorescence intensity, Spleen” value (5 min p.i.) was 154.6 ± 9.0 a.u, the “Fluorescence intensity, Stomach” value (5 min p.i.) was 91.7 ± 13.4 a.u and the “Fluorescence intensity, Tumor” value (5 min p.i.) was 36.2 ± 6.0 a.u. The “Fluorescence intensity, Bone” value (1 hour p.i.) was 74.0 ± 13.1 a.u, the “Fluorescence intensity, Brain” value (1 hour p.i.) was 137.7 ± 8.9 a.u and the “Fluorescence intensity, Heart” value (1 hour p.i.) was 179.6 ± 16.4 a.u. The “Fluorescence intensity, Kidneys” value (1 hour p.i.) was 193.7 ± 10.6 a.u, the “Fluorescence intensity, L. Intest.” value (1 hour p.i.) was 28.4 ± 17.9 a.u and the “Fluorescence intensity, Liver” value (1 hour p.i.) was 533.0 ± 16.7 a.u. The “Fluorescence intensity, Lungs” value (1 hour p.i.) was 194.7 ± 6.2 a.u, the “Fluorescence intensity, Muscle” value (1 hour p.i.) was 8.2 ± 18.2 a.u and the “Fluorescence intensity, Pancreas” value (1 hour p.i.) was 132.7 ± 24.5 a.u. For the same compound, the “Fluorescence intensity, S. Intest.” value (1 hour p.i.) was 71.9 ± 16.9 a.u, the “Fluorescence intensity, Skin” value (1 hour p.i.) was 39.1 ± 9.0 a.u and the “Fluorescence intensity, Spleen” value (1 hour p.i.) was 157.8 ± 4.4 a.u. The “Fluorescence intensity, Stomach” value (1 hour p.i.) was 99.1 ± 23.0 a.u, the “Fluorescence intensity, Tumor” value (1 hour p.i.) was 100.5 ± 38.5 a.u and the “Fluorescence intensity, Bone” value (2 hours p.i.) was 57.5 ± 23.4 a.u. For the same compound, the “Fluorescence intensity, Brain” value (2 hours p.i.) was 82.2 ± 17.4 a.u, the “Fluorescence intensity, Heart” value (2 hours p.i.) was 167.6 ± 12.2 a.u and the “Fluorescence intensity, Kidneys” value (2 hours p.i.) was 156.0 ± 14.1 a.u. The “Fluorescence intensity, L. Intest.” value (2 hours p.i.) was 6.4 ± 14.4 a.u, the “Fluorescence intensity, Liver” value (2 hours p.i.) was 542.6 ± 26.8 a.u and the “Fluorescence intensity, Lungs” value (2 hours p.i.) was 177.0 ± 10.4 a.u. The “Fluorescence intensity, Muscle” value (2 hours p.i.) was 0.0 ± 0.0 a.u, the “Fluorescence intensity, Pancreas” value (2 hours p.i.) was 89.0 ± 32.0 a.u and the “Fluorescence intensity, S. Intest.” value (2 hours p.i.) was 47.1 ± 13.9 a.u. The “Fluorescence intensity, Skin” value (2 hours p.i.) was 32.0 ± 18.1 a.u, the “Fluorescence intensity, Spleen” value (2 hours p.i.) was 136.9 ± 7.7 a.u and the “Fluorescence intensity, Stomach” value (2 hours p.i.) was 80.7 ± 18.6 a.u. For the same compound, the “Fluorescence intensity, Tumor” value (2 hours p.i.) was 133.9 ± 14.2 a.u, the “Fluorescence intensity, Bone” value (4 hours p.i.) was 63.1 ± 21.0 a.u and the “Fluorescence intensity, Brain” value (4 hours p.i.) was 73.8 ± 8.3 a.u. The “Fluorescence intensity, Heart” value (4 hours p.i.) was 185.6 ± 7.2 a.u, the “Fluorescence intensity, Kidneys” value (4 hours p.i.) was 185.5 ± 6.2 a.u and the “Fluorescence intensity, L. Intest.” value (4 hours p.i.) was 7.9 ± 17.6 a.u. For the same compound, the “Fluorescence intensity, Liver” value (4 hours p.i.) was 540.1 ± 18.8 a.u and the “Fluorescence intensity, Lungs” value (4 hours p.i.) was 187.0 ± 17.2 a.u.
